Reference: the supplement of paper PMC9112550, “Optimization of the antimicrobial peptide Bac7 by deep mutational scanning” (BMC Biology, 2022)

The sequences below were run on Escherichia coli TOP10 (assay: shrunken log2 fold change of peptide-encoding DNA abundance (4.5 h post-induction vs induction); higher = less antimicrobial activity (less host growth inhibition)). Conditions: time post-induction: 4.5 h; library: site-saturation at positions 5, 18, 19, 20.
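Also: peptides expressed intracellularly from a pBAD plasmid library in pooled LB shake-flask culture, induced with 0.3% L-arabinose, DNA abundance read by NGS, three biological replicates, DESeq2 with apeglm shrinkage.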

| Sequence | shrunken log2 fold change |
| --- | --- |
| RRIRVRPPRLPRPRPRPKAEPRP | -0.00229 |
| RRIRARPPRLPRPRPRPTFMPRP | 0.106 |
| RRIRDRPPRLPRPRPRPTIHPRP | -0.128 |
| RRIRYRPPRLPRPRPRPCCTPRP | -0.418 |
| RRIRARPPRLPRPRPRPQDKPRP | -0.132 |
| RRIRRRPPRLPRPRPRPKKHPRP | 0.197 |
| RRIRSRPPRLPRPRPRPGAIPRP | 0.187 |
| RRIRGRPPRLPRPRPRPSWMPRP | -0.208 |
| RRIRFRPPRLPRPRPRPHVVPRP | -0.0249 |
| RRIRDRPPRLPRPRPRPIDEPRP | 0.0126 |
| RRIRMRPPRLPRPRPRPGSNPRP | 0.211 |
| RRIRCRPPRLPRPRPRPFRTPRP | -0.421 |
| RRIRRRPPRLPRPRPRPMCCPRP | -0.0111 |
| RRIRSRPPRLPRPRPRPVYHPRP | 0.0286 |
| RRIRPRPPRLPRPRPRPGLIPRP | -0.0104 |
| RRIRFRPPRLPRPRPRPPIIPRP | 0.92 |
| RRIRYRPPRLPRPRPRPTSAPRP | 0.0113 |
| RRIRTRPPRLPRPRPRPKMCPRP | 0.15 |
| RRIRERPPRLPRPRPRPHEDPRP | 0.111 |
| RRIRFRPPRLPRPRPRPWCPPRP | -0.155 |
| RRIRPRPPRLPRPRPRPEGDPRP | 0.39 |
| RRIRSRPPRLPRPRPRPKCPPRP | -0.118 |
| RRIRCRPPRLPRPRPRPMRIPRP | 0.497 |
| RRIRTRPPRLPRPRPRPIYYPRP | -0.818 |
| RRIRHRPPRLPRPRPRPNYGPRP | -0.0744 |

| Sequence | shrunken log2 fold change |
| --- | --- |
| RRIRERPPRLPRPRPRPMGQPRP | -0.0667 |
| RRIRFRPPRLPRPRPRPEKRPRP | -0.0774 |
| RRIRQRPPRLPRPRPRPNPLPRP | -0.0379 |
| RRIRMRPPRLPRPRPRPDWCPRP | 0.0698 |
| RRIRSRPPRLPRPRPRPVENPRP | 0.0506 |
| RRIRRRPPRLPRPRPRPDPYPRP | 0.175 |
| RRIRTRPPRLPRPRPRPMLCPRP | -0.00838 |
| RRIRPRPPRLPRPRPRPPSHPRP | 0.0789 |
| RRIRGRPPRLPRPRPRPYTSPRP | -0.278 |
| RRIRYRPPRLPRPRPRPWIKPRP | 0.106 |
| RRIRMRPPRLPRPRPRPNDMPRP | -0.204 |
| RRIRQRPPRLPRPRPRPWVFPRP | -0.227 |
| RRIRARPPRLPRPRPRPIDTPRP | 0.0213 |
| RRIRNRPPRLPRPRPRPPYDPRP | -0.561 |
| RRIRERPPRLPRPRPRPSEVPRP | -0.12 |
| RRIRDRPPRLPRPRPRPWGLPRP | 0.0419 |
| RRIRERPPRLPRPRPRPRGIPRP | -0.102 |
| RRIRGRPPRLPRPRPRPAHTPRP | 0.761 |
| RRIRTRPPRLPRPRPRPMCYPRP | -0.252 |
| RRIRPRPPRLPRPRPRPAWDPRP | 0.431 |
| RRIRVRPPRLPRPRPRPAEPPRP | 0.218 |
| RRIRNRPPRLPRPRPRPGGLPRP | -0.13 |
| RRIRPRPPRLPRPRPRPFMMPRP | -0.845 |
| RRIRPRPPRLPRPRPRPLYTPRP | -0.37 |
| RRIRARPPRLPRPRPRPRAQPRP | 0.465 |

| Sequence | shrunken log2 fold change |
| --- | --- |
| RRIRERPPRLPRPRPRPWISPRP | 0.0119 |
| RRIRERPPRLPRPRPRPDPRPRP | 0.768 |
| RRIRKRPPRLPRPRPRPWHTPRP | 0.0104 |
| RRIRWRPPRLPRPRPRPLTMPRP | 0.0382 |
| RRIRYRPPRLPRPRPRPLELPRP | 0.0293 |
| RRIRQRPPRLPRPRPRPFPVPRP | 0.0568 |
| RRIRIRPPRLPRPRPRPVSVPRP | -0.191 |
| RRIRTRPPRLPRPRPRPDRPPRP | 0.188 |
| RRIRPRPPRLPRPRPRPAEHPRP | 0.214 |
| RRIRRRPPRLPRPRPRPYKSPRP | -0.239 |
| RRIRLRPPRLPRPRPRPMRDPRP | 0.336 |
| RRIRIRPPRLPRPRPRPFATPRP | -0.0964 |
| RRIRLRPPRLPRPRPRPYEVPRP | -0.0159 |
| RRIRTRPPRLPRPRPRPDCIPRP | -0.0428 |
| RRIRPRPPRLPRPRPRPWVHPRP | -0.0708 |
| RRIRERPPRLPRPRPRPTDEPRP | -0.0552 |
| RRIRCRPPRLPRPRPRPYKDPRP | -0.492 |
| RRIRDRPPRLPRPRPRPFENPRP | 0.115 |
| RRIRKRPPRLPRPRPRPVPTPRP | 0.916 |
| RRIRIRPPRLPRPRPRPRCKPRP | -0.35 |
| RRIRQRPPRLPRPRPRPHACPRP | -0.0973 |
| RRIRYRPPRLPRPRPRPSQYPRP | -0.209 |
| RRIRCRPPRLPRPRPRPFTAPRP | -0.553 |
| RRIRIRPPRLPRPRPRPGAVPRP | 0.28 |
| RRIRLRPPRLPRPRPRPYFHPRP | -1.08 |
